Measured values published in paper PMC11818568, “Characterization of Tetrathionate Hydrolase from Acidothermophilic Sulfur-Oxidizing Archaeon Metallosphaera cuprina Ar-4” (International Journal of Molecular Sciences, 2025).

Substrate: O=S(=O)(O)SSS(=O)(=O)O
Test: HPLC discontinuous assay, Michaelis-Menten
Assay type: biochemical, Metallosphaera cuprina
Details: pH 6.0, 95 °C, 1.15 µg enzyme, K2S4O6 varied

B1: TTHMc (tetrathionate hydrolase, Mcup_1281) (Metallosphaera cuprina Ar-4) (protein)
chain: PSITQIVSQVITPIPQPIVRTYDIYNTTYFPYEVKVTYYPGNATSQNLGLPGSWLVTNGGQSHNAVVDTTCTELIQGVSWQQDFAHMAGAALIPLSAPENMLPGSNVMGTRSALVMLTQMVGEPLGVSLADNLLFVEEDSGPGSIFAVNPLNGQVVWYATGLASYAMNNPIVYNGIVYVTVGDVGFNFANFVHYENGQYSAIHRGMAYGAIYAFNASDGILLWMRFTMGEAMPAPAVYDGILAYSDGGGEFVGVNATTGQTLWMDSIPGLFDSMSSVNYYVMPNGTPLFVAGFTSLTEPFGLLVAVNGITGKMVWNASLPSPNKPFNTGMGDVPPAVDQSLGIVVQSTVANAEPNGTVDTMVLAVNATNGHVLWVTNLGRGYTPPAFKGAVPMIYNNTVFVGAPSLGTEFALNISTGRIIWQTRLNGISLPPTAPGGPRGSATIYDNLLWIAGGPNVYVLNPHNGDLLQQYYVGGRFGIVNPVIAGNTMYLTNSYGWVIAIPLYQVFPLFQYYTNS
notes: native enzyme purified from tetrathionate-grown M. cuprina Ar-4 cells (soluble fraction; DEAE, HIC, size exclusion, Q-Sepharose); no tag; SDS band about 54 kDa; no homodimer observed
  Km: 350 µM
